{"source": "patent US11306331B2", "about": "“Processes for the production of hydroxycinnamic acids using polypeptides having tyrosine ammonia lyase activity” (CysBio ApS, priority 2014, dated 2022)", "molecules": {"B1": {"name": "RmXALLI: RmXAL expressed from a synthetic gene codon optimized for Lactococcus lactis (SEQ ID NO: 57) (protein)", "chain": "MAPSVDSIATSVANSLSNGLHAAAAANGGDVHKKTAGAGSLLPTTETTQLDIVERILADAGATDQIKLDGYTLTLGDVVGAARRGRSVKVADSPHIREKIDASVEFLRTQLDNSVYGVTTGFGGSADTRTEDAISLQKALLEHQLCGVLPTSMDGFALGRGLENSLPLEVVRGAMTIRVNSLTRGHSAVRIVVLEALTNFLNHGITPIVPLRGTISASGDLSPLSYIAASITGHPDSKVHVDGKIMSAQEAIALKGLQPVVLGPKEGLGLVNGTAVSASMATLALTDAHVLSLLAQALTALTVEAMVGHAGSFHPFLHDVTRPHPTQIEVARNIRTLLEGSKYAVHHETEVKVKDDEGILRQDRYPLRCSPQWLGPLVSDMIHAHAVLSLEAGQSTTDNPLIDLENKMTHHGGAFMASSVGNTMEKTRLAVALMGKVSFTQLTEMLNAGMNRALPSCLAAEDPSLSYHCKGLDIAAAAYTSELGHLANPVSTHVQPAEMGNQAINSLALISARRTAEANDVLSLLLATHLYCVLQAVDLRAMEFEHTKAFEPMVTELLKQHFGALATAEVEDKVRKSIYKRLQQNNSYDLEQRWHDTFSVATGAVVEALAGQEVSLASLNAWKVACAEKAIALTRSVRDSFWAAPSSSSPALKYLSPRTRVLYSFVREEVGVKARRGDVYLGKQEVTIGTNVSRIYEAIKSGCIAPVLVKMMA", "modifications": "RmXal coding sequence (codon optimized for Lactococcus lactis)"}}, "tested_on": "L. lactis NZ9000ΔldhΔldhB", "assay": "Specific pHCA and CA productivity of L. lactis strains expressing TAL/PAL enzymes in CDM", "type": "cell-based, Lactococcus lactis", "conditions": "CDM", "source_text": "The synthetic RsXALI (protein GI 129592) and RmXALI (protein GI 126464011) genes, codon optimized for Lactococcus lactis (GeneArt), were cloned into the nisin inducible expression vector pNZ8048 (Kuipers et al., 1998) as follows: RsXALI (SEQ ID NO: 56) and RmXALI (SEQ ID NO: 57) genes and the vector were PCR amplified using the primers listed in Table 7, and were assembled in a single-tube isothermal reaction using the Gibson Assembly Master Mix (New England Biolabs). Reaction products were ethanol-precipitated and suspended in double distilled water before transformation into L. lactis by electroporation as described by Holo and Nes (1995). The synthetic genes encoding SeSam8, R_XAL, HaXAL1 and FjXAL described in a previous example above were amplified by PCR using the primer pairs listed in Table 1, digested with specific restriction enzymes, and cloned in-between the NcoI and XbaI restriction sites of pNZ8048. The plasmids were obtained and maintained in L. lactis NZ9000 (Kuipers et al., 1998) and the gene sequences of the different constructs were verified by sequencing.\nTo assess pHCA production, TAL-expression vectors were transformed into a strain derived from NZ9000, but with deletion of the genes Idh and dhB (NZ9000ΔldhΔldhB). A control strain was also constructed by transformation of NZ9000ΔldhΔldhB with empty expression vector pNZ8048.\nFor molecular biology procedures, L. lactis strains were cultivated as batch cultures (flasks) without aeration in M17 medium (Difco™, USA) supplemented with 0.5% glucose (w/v) at 30° C. To assess pHCA production, strains were grown as static cultures in chemically defined medium (CDM; Poolman and Konings, 1988) containing 1% glucose (wt/vol) without pH control (initial pH 6.5 or 7.0) and supplemented with 1.7 or 3.7 mM L-tyrosine. Plasmid selection was achieved by addition of 5 μg mL^−1 chloramphenicol to the growth medium. Growth was monitored by measuring OD600. For heterologous expression of cloned tyrosine ammonia lyases, L. lactis strains were grown in CDM and nisin (1.5 μg L^−1) was added at an OD600 of 0.3-0.4. Samples (1 mL) of cultures were collected at different points during growth; centrifuged (16,100×g, 10 min, 4° C.) and the supernatants stored at −20° C. until analysis by HPLC as described in a previous example above. […] The first six columns are results from media containing 1.7 mM tyrosine. The seventh and ninth columns represent samples from strains grown in media containing 3.7 mM tyrosine, and the eighth and ninth columns are data from media with 68.5 mM 3-(N-morpholino)propanesulfonic acid (MOPS) and initial pH adjusted to 7.0 rather than 6.5."}
{"molecule": "B1", "values": [{"measurement": "production of CA", "value": "the only enzyme resulting in production of CA"}]}
